Data published in article PMC4108505 (Journal of molecular biology, 2014).

How the values were obtained:
Assay in all cases: fluorescence polarisation
[1] = target: T1, SipD^t S148E (Salmonella, UniProt Q56026 101-343, S148E)
T1 sequence: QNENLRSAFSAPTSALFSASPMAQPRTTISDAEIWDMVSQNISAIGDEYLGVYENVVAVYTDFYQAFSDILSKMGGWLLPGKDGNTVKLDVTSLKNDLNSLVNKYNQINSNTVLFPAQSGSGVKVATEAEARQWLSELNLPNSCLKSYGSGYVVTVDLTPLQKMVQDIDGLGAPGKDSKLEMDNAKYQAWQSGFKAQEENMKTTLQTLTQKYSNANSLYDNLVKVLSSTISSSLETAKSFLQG

[2] = target: T2, SipD^t (truncated form of SipD lacking the N-terminal alpha-helical hairpin, residues 101-343) (Salmonella, UniProt Q56026 101-343)
T2 sequence: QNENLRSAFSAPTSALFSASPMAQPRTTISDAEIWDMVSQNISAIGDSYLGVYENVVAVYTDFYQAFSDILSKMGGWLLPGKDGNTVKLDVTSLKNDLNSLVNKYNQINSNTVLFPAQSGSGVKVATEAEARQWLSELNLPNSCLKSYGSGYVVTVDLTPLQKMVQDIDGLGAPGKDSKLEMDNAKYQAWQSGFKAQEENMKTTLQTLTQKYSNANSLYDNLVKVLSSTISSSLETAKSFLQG

[3] = target: T3, SipD^t S313E (Salmonella, UniProt Q56026 101-343, S313E)
T3 sequence: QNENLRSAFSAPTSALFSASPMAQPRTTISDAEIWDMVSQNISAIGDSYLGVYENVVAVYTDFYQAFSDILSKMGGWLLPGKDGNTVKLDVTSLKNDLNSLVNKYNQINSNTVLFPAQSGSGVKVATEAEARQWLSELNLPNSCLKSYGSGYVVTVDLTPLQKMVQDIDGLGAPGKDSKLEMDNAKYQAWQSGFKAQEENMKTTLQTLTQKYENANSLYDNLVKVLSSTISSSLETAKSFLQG

[4] = target: T4, SipD^t V323K (Salmonella, UniProt Q56026 101-343, V323K)
T4 sequence: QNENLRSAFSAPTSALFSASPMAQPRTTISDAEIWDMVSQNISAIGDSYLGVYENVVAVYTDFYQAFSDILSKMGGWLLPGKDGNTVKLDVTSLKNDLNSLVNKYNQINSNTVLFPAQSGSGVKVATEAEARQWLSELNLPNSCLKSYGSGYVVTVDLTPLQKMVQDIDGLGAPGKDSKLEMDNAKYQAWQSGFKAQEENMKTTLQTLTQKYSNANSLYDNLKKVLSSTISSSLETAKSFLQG

[5] = target: T5, SipD^t V157K (Salmonella, UniProt Q56026 101-343, V157K)
T5 sequence: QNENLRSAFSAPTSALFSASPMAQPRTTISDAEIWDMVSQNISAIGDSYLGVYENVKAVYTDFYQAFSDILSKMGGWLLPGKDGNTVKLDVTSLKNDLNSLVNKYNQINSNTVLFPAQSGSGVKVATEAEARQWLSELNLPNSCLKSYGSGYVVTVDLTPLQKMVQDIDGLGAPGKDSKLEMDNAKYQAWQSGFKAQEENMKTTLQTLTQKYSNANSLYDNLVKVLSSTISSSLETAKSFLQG

[6] = target: T6, SipD^t D320R (Salmonella, UniProt Q56026 101-343, D320R)
T6 sequence: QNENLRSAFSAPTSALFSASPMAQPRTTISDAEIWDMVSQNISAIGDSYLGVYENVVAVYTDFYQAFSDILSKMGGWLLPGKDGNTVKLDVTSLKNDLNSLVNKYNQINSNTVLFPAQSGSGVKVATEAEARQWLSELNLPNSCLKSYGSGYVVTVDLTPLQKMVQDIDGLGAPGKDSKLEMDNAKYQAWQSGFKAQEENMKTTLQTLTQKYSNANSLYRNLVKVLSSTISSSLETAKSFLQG

B1: PrgI V65A/V67A/L31C labelled with Alexa Fluor 488-C5-maleimide (natural protein)
chain: MATPWSGYLDDVSAKFDTGVDNLQTQVTEACDKLAAKPSDPALLAAYQSKLSEYNLYRNAQSNTAKAFKDIDAAIIQNFR
modifications: Alexa Fluor 488-C5-maleimide on the cysteine of L31C
Kd [1]: 189 ± 20 µM
Kd [2]: 108 ± 10 µM
binding result [3]: binds
binding result [4]: binds
binding result [5]: binds
binding result [6]: binds
